B1: Azoarcus group I ribozyme (parent)
chain: GUGCCUUGCGCCGGGAAACCACGCAAGGGAUGGUGUCAAAUUCGGCGAAACCUAAGCGCCCGCCCGGGCGUAUGGCAACGCCGAGCCAAGCUUCGGCGCCUGCGCCGAUGAAGGUGUAGAGACUAGACGGCACCCACCUAAGGCAAACGCUAUGGUGAAGGCAUAGUCCAGGGAGUGGCGAAAGUCACACAAACCGG

This is an account of results in the RNAGym collection of RNA variant scans (doi:10.1093/molbev/msab373).

Variants of B1 are the subject of this data set. The data set can be described thus: reverse-splicing fitness (ratio to wild type); higher = more active; in vitro selection; Mg2+ level not given. The method, boiled down:
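An in vitro group I ribozyme library with randomized positions was T7-transcribed and gel-purified. In triplicate, 10 pmol RNA in EPPS pH 7.5 was reacted with 50 pmoles of a 30-nt RNA substrate for 1 h at 37 °C across several added MgCl2 levels (1–48 mM), then stopped with EDTA. Products were reverse transcribed from a substrate-complementary primer, PCR-amplified and sequenced (HiSeq 4000). Fitness is a variant's read proportion after selection over that before, normalised to wild type.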
For the variant C82U A111C A120G A145G C150G C169G U176C, the reverse-splicing fitness was found to be 0.0114.
Turning to C82U A111C A120G A145G C150G C169G U176G, the reverse-splicing fitness turned out to be 0.00526.
With C82U A111C A120C C169A U176G, the reverse-splicing fitness was 0.00546.
The figure for C82U A111C A120C C169A U176C is 0.0189; for C82U A111C A120C C169A U176A it is 0.016; for C82U A111C A120C A145U C150A C169U U176G it is 0.00706.
As for C82U A111C A120C A145U C150A C169U U176A, the reverse-splicing fitness was 0.0184.
Next, C82U A111C A120C A145U C150A C169U U176C: 0.014.
For the variant C82U A111C A120G A145G C150G C169A U176A, the reverse-splicing fitness is 0.0117.
Next, C82U A111C A120G A145G C150G C169A U176C: 0.011; C82U A111C A120G A145G C150G C169A U176G: 0.00775; C82U A111C A120C A145U C150U C169U U176G: 0.00597.
Next, C82U A111C A120C A145U C150U C169U U176A: 0.0142.
The figure for C82U A111C A120C A145U C150U C169U U176C is 0.0161.
Regarding C82U A111C A120C A145G C150G C169A U176C, the reverse-splicing fitness came out at 0.0116.
Next, C82U A111C A120C A145G C150G C169A U176G: 0.00708; C82U A111C A120C A145G C150G C169A U176A: 0.0111.
Next, C82U A111C A120G A145G C150U C169A: 0.0103; C82U A111C A120G A145G C150U C169U: 0.00958; C82U A111C A120G A145G C150U C169G: 0.00984.
Next, C82U A111C A120C A145U C150G C169U U176A: 0.00839; C82U A111C A120C A145U C150G C169U U176G: 0.00581; C82U A111C A120C A145U C150G C169U U176C: 0.0132.
With C82U A111C A120G A145C C150U C169A U176A, the reverse-splicing fitness was 0.00813.
The figure for C82U A111C A120G A145C C150U C169A U176C is 0.00554.
Take C82U A111C A120G A145C C150U C169A U176G: the reverse-splicing fitness was 0.00505.
The figure for C82U A111C A120C A145U is 0.028; for C82U A111C A120G A145G C150G C169U U176G it is 0.00643; for C82U A111C A120G A145G C150G C169U U176C it is 0.0104.
In the case of C82U A111C A120G A145G C150G C169U U176A, the reverse-splicing fitness is 0.0116.
Next, C82U A111C A120G A145C C169U U176A: 0.0137; C82U A111C A120G A145C C169U U176G: 0.00308.
As to C82U A111C A120G A145C C169U U176C, the reverse-splicing fitness came to 0.00886.
Next, C82U A111C A120C A145G C150G U176C: 0.00988.
The figure for C82U A111C A120C A145G C150G U176G is 0.00622; for C82U A111C A120C A145G C150G U176A it is 0.00676; for C82U A111C A120G A145G C150A it is 0.00814.
The figure for C82U A111C A120G A145G C150U is 0.0115.
As for C82U A111C A120G A145G C150G, the reverse-splicing fitness came out at 0.00776.
The figure for C82U A111C A120C C150U C169U U176G is 0.00584.
Take C82U A111C A120C C150U C169U U176A: the reverse-splicing fitness was 0.0178.
The figure for C82U A111C A120C C150U C169U U176C is 0.0196.
Next, C82U A111C A120C C169U: 0.0127.
The figure for C82U A111C A120C C169A is 0.00788; for C82U A111C A120C C169G it is 0.00813.
With C82U A111C A120G A145G C150U C169U U176G, the reverse-splicing fitness was determined as 0.00449.
Regarding C82U A111C A120G A145G C150U C169U U176A, the reverse-splicing fitness was 0.0152.
Next, C82U A111C A120G A145G C150U C169U U176C: 0.0131; C82U A111C A120G A145G C150A U176C: 0.017; C82U A111C A120G A145G C150A U176A: 0.0093.
As to C82U A111C A120G A145G C150A U176G, the reverse-splicing fitness turned out to be 0.00528.
The figure for C82U A111C A120G A145C C150A is 0.00617; for C82U A111C A120G A145C C150U it is 0.00818; for C82U A111C A120G A145C C150G it is 0.007.
Consider C82U A111C A120C A145U C150G C169A U176A, for which the reverse-splicing fitness was 0.00888.
As to C82U A111C A120C A145U C150G C169A U176G, the reverse-splicing fitness was 0.00632.
Next, C82U A111C A120C A145U C150G C169A U176C: 0.00938; C82U A111C A120C C150G C169G U176C: 0.0068.
The figure for C82U A111C A120C C150G C169G U176A is 0.00777.
Next, C82U A111C A120C C150G C169G U176G: 0.00547.
With C82U A111C A120C A145U U176C, the reverse-splicing fitness is 0.0181.
The figure for C82U A111C A120C A145U U176G is 0.00547; for C82U A111C A120C A145U U176A it is 0.0118.
With C82U A111C A120G A145C C150G C169A U176G, the reverse-splicing fitness came to 0.00441.
Next, C82U A111C A120G A145C C150G C169A U176A: 0.00754; C82U A111C A120G A145C C150G C169A U176C: 0.00509.
The figure for C82U A111C A120C A145G C150A C169U U176A is 0.0176; for C82U A111C A120C A145G C150A C169U U176G it is 0.00639; for C82U A111C A120C A145G C150A C169U U176C it is 0.0172.
Next, C82U A111C A120G A145U C150A C169U U176A: 0.0157.
C82U A111C A120G A145U C150A C169U U176C: the reverse-splicing fitness was determined as 0.0106.
Next, C82U A111C A120G A145U C150A C169U U176G: 0.00435.
Next, C82U A111C A120C C150A C169U: 0.0128.
Next, C82U A111C A120C C150A C169G: 0.00864; C82U A111C A120C C150A C169A: 0.00879.
As to C82U A111C A120C C150U C169A U176G, the reverse-splicing fitness came out at 0.00672.
For C82U A111C A120C C150U C169A U176C, the reverse-splicing fitness amounted to 0.0151.
Next, C82U A111C A120C C150U C169A U176A: 0.0151; C82U A111C A120C A145U C150A C169G U176G: 0.00587; C82U A111C A120C A145U C150A C169G U176C: 0.015.
Next, C82U A111C A120C A145U C150A C169G U176A: 0.0132; C82U A111C A120C A145U C150G U176C: 0.00923.
Next, C82U A111C A120C A145U C150G U176A: 0.00578; C82U A111C A120C A145U C150G U176G: 0.00321.
